Experimental data from publication PMC11756078, “Effects of genetic ablation and pharmacological inhibition of HuR on gene expression, iron metabolism, and hormone levels” (BMC Biology, 2025).

How the values were obtained:
[1] = test system: mCherry-HuR (human (HeLa HuR KO cells; HuR species implied)?); test: RP-CONA (on-bead RNA pull-down, confocal imaging); conditions: Anisotropy: phosphate buffer pH 7.5, 25 mM MgCl (so in the source), 250 mM NaCl, 0.1% Tween 20, 5 mM DTT, temperature not stated, RP-CONA: cell extract on …
[2] = target: HuR (Recombinant Human Elav-like protein 1, ELAVL1/HuR) (Homo sapiens, UniProt Q15717); test: fluorescence anisotropy, displacement of pri-miR-7-1 CTL 6-FAM RNA from purified recombinant HuR; RP-CONA in HeLa extracts gave IC50 […]; type: binding
Chain of HuR (Recombinant Human Elav-like protein 1, ELAVL1/HuR) (Q15717 2-326): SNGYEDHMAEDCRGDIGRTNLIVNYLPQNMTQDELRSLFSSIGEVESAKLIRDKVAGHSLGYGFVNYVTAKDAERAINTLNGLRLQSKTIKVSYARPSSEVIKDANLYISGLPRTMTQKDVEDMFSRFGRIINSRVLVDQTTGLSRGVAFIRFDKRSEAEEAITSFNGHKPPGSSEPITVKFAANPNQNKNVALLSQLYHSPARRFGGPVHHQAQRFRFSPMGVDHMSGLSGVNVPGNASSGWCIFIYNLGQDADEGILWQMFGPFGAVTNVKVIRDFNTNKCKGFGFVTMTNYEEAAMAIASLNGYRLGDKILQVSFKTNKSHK

[3] = test system: HuR (ELAV-like protein 1), recombinant (human); test: fluorescence anisotropy; conditions: Anisotropy: phosphate buffer pH 7.5, 25 mM MgCl (so in the source), 250 mM NaCl, 0.1% Tween 20, 5 mM DTT, temperature not stated; RP-CONA: cell extract on …

In the case of “pri-miR-7 CTL (pri-miR-7-6-FAM), RP-CONA”, the binding signal ([1]; 20 uM Eltrombopag) is reported as 80 % inhibition and the IC50 ([1]; IC50 is of Eltrombopag (0-50 uM) inhibiting the complex, not HuR affinity) is reported as 5.9 µM.
With CC1=NN(c2ccc(C)c(C)c2)C(=O)/C1=N\Nc1cccc(-c2cccc(C(=O)O)c2)c1O [E20, Eltrombopag] the IC50 [2] was 19 µM.
Work on pri-miR-7-1-6-FAM CTL, anisotropy yielded an IC50 [3] of 19 µM.
